Data published in US20250034549.

Experiments:
[1] = target: v2.3 BE-VLP gag-ABE8e fusion
[2] = target: v2.1 BE-VLP gag-ABE8e fusion
[3] = target: v2.4 BE-VLP gag-ABE8e fusion
[4] = target: v2.2 BE-VLP gag-ABE8e fusion

B1: MMLV protease (protein)
chain: TLDDQGGQGQEPPPEPRITLKVGGQPVTFLVDTGAQHSVLTQNPGPLSDKSAWVQGATGGKRYRWTTDRKVHLATGKVTHSFLHVPDCPYPLLGRDLLTKLKAQIHFEGSGAQVMGPMGQPLQVL
[1]
  fraction of cleaved ABE8e versus full-length gag-ABE8e present in purified BE-VLPs (western blot): the v2.4 linker is cleaved more efficiently than the v2.1 and v2.2 linkers, but less efficiently than the v2.3 linker
[2]
  fraction of cleaved ABE8e versus full-length gag-ABE8e present in purified BE-VLPs (western blot): the v2.4 linker is cleaved more efficiently than the v2.1 and v2.2 linkers, but less efficiently than the v2.3 linker
[3]
  fraction of cleaved ABE8e versus full-length gag-ABE8e present in purified BE-VLPs (western blot): the v2.4 linker is cleaved more efficiently than the v2.1 and v2.2 linkers, but less efficiently than the v2.3 linker
[4]
  fraction of cleaved ABE8e versus full-length gag-ABE8e present in purified BE-VLPs (western blot): the v2.4 linker is cleaved more efficiently than the v2.1 and v2.2 linkers, but less efficiently than the v2.3 linker
